For the experiment, the target named is T1, CD46 (human (HEp-2 cells), UniProt P15529).
T1 construct: endogenous, cell-surface biotinylated, solubilised in Triton X-100 lysate; The bands in the CR2300 lane were not separately identified
T1 sequence (antigen, looked up): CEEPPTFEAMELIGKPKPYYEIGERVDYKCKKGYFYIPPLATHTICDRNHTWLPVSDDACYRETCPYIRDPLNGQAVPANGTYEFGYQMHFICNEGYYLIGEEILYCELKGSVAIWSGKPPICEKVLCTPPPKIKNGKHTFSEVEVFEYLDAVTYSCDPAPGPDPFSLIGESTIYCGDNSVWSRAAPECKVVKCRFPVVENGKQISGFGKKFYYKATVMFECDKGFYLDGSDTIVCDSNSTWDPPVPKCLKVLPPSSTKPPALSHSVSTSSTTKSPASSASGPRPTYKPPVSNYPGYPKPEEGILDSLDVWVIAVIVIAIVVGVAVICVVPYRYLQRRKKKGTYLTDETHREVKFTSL
Briefly: immunoprecipitation from surface-biotinylated HEp-2 lysate, streptavidin-HRP blot. Here is the method: To identify whether CR2407 reacted with a membrane extractable antigen, the cell surface of 10⁸ HEp-2 cells were biotinylated during 1 hour at room temperature with a final concentration of 2 mg sulfo-NHS-LC-LC-biotin in physiological buffer (0.2 M phosphate buffer containing 0.12 M NaCl, pH 7.4). Subsequently, the remaining free biotin was blocked during an incubation of 30 minutes at room temperature with 10 mM glycine in physiological buffer. After labeling, the cells were washed with cold physiological buffer and solubilized for 30 minutes on ice at a concentration of 3×10⁷ cells/ml in TX-100 lysis buffer (1% Triton X-100, 150 mM NaCl, 50 mM Tris pH 7.4, protease inhibitors (Roche)). The unsoluble material was removed by centrifugation for 30 minutes at 4° C. at 20,000*g.
Hereafter, the biotinylated solubilized lysates were pre-cleared with protein-A beads for 2 hours at 4° C. 4 μg of CR2407 and the negative control antibody CR2428 and positive control antibody CR2300 (directed against CD46) were coupled to protein A beads at room temperature. Next, the pre-cleared samples were incubated with the above IgG's coupled to protein-A beads for 2 hours at 4° C. […] After blotting on PVDF membranes, the biotinylated proteins were detected with streptavidin-HRP (Amersham) and enhanced chemoluminescence (Amersham).

B1: CR2407 IgG1 (antibody, V domains shown)
VH: EVQLVESGGGLVQPGGSLRLSCAASGFTFSSYAMSWVRQAPGKGLEWVSAISGSGGSTYYADSVKGRFTISRDNSKDTLYLQMSSLKTEDTAVYYCARGSLLQFWGQGTLVTVSS
VL: SSELTQDPAVSVALGQTVRITCQGDSLRSYYASWYQQKPGQAPVLVIYGKNNRPSGIPDRFSGSSSGNTASLTITGAQAEDEADYYCNSRDSSGNHVVFGGGTKLTVLG
notes: also called anti-ALCAM IgG1
Regarding B1, the binding result is listed as “no binding (tested: 4 ug IgG on protein-A beads)”.
